The record followed here is patent US20080254026A1 (published 2008).

Assay [1] deals with T1, CD40 extracellular Domain 2 GST fusion protein (human, UniProt P25942 61-104).
T1 construct: Expressed in insect cells with a GP67 secretion signal; not shown: glutathione S-transferase (GST) fusion partner
T1 chain: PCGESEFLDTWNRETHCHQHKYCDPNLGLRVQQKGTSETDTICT
As to the kind of experiment: western blot of CD40 Domain 2, reduced. For orientation: In western blotting, separated proteins are transferred to a membrane and probed.

Assay [2] has as its target T2, CD40 extracellular Domain 3 GST fusion protein (human, UniProt P25942 104-144).
T2 construct: Expressed in insect cells with a GP67 secretion signal; not shown: glutathione S-transferase (GST) fusion partner
T2 chain: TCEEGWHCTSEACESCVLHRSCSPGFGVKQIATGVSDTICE
Put plainly: western blot of CD40 domain GST fusion proteins. On the procedure: (§1) To map the antigenic region on CD40, the four extracellular domains of CD40 were cloned and expressed in insect cells as GST fusion proteins. The secretion of the four domains was ensured with a GP67 secretion signal. Insect cell supernatant was analyzed by SDS-PAGE and western blot analysis to identify the domain containing the epitope.

Assay [3] addresses T3, CD40 extracellular Domain 4 GST fusion protein (human, UniProt P25942 145-187).
T3 construct: Expressed in insect cells with a GP67 secretion signal; not shown: glutathione S-transferase (GST) fusion partner
T3 chain: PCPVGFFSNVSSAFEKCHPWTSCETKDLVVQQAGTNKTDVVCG
As to the kind of experiment: western blot of CD40 domain GST fusion proteins. On the procedure:
as §1

The target of assay [4] is T4, CD40 extracellular Domain 1 GST fusion protein (human).
T4 construct: Expressed in insect cells with a GP67 secretion signal; not shown: glutathione S-transferase (GST) fusion partner
T4 chain: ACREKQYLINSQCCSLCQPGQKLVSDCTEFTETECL
As to the kind of experiment: western blot of CD40 domain GST fusion proteins. On the procedure: as §1

The target in assay [5] is T5, CD40 Domain 2 10-mer peptide HKYCDPNLGL (spot 20) (human).
T5 construct: Synthetic 10-mer on a SPOTs membrane (Sigma)
T5 peptide: HKYCDPNLGL
As to the kind of experiment: SPOTs membrane of 10-mer peptides, spot 20 listed as recognised. The text has this:
(§2) SPOTs membranes (Sigma) containing thirty-five 10 mer peptides with a 1-amino-acid offset were generated.

Assay [6] has as its target T6, CD40 Domain 2 10-mer peptide KYCDPNLGLR (spot 21) (human).
T6 construct: Synthetic 10-mer on a SPOTs membrane (Sigma)
T6 peptide: KYCDPNLGLR
As to the kind of experiment: SPOTs membrane of 10-mer peptides, spot 21 listed as recognised.
Description: as §2

In assay [7] the target is T7, CD40 Domain 2 10-mer peptide YCDPNLGLRV (spot 22) (human).
T7 construct: Synthetic 10-mer on a SPOTs membrane (Sigma)
T7 peptide: YCDPNLGLRV
Put plainly: SPOTs membrane of 10-mer peptides, spot 22 listed as recognised.
Description: as §2

For assay [8], the target named is T8, Recombinant soluble CD40-his (human, UniProt P25942 21-193).
T8 construct: Analyte in the Biacore experiments; not shown: his tag
T8 sequence (P25942 21-193 limits assumed): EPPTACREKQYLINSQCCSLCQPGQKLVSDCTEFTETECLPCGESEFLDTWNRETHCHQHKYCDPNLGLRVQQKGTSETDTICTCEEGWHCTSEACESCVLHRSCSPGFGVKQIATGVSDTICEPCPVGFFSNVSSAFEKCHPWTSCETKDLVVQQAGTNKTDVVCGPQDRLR
As to the kind of experiment: Biacore. Here is the method: (§3) Protein A was immobilized onto CM5 biosensor chips via amine coupling. Human anti-CD40 monoclonal antibodies, at 1.5 μg/ml, were captured onto the modified biosensor surface for 1.5 minutes at 10 μl/min. Recombinant soluble CD40-his was flowed over the biosensor surface at varying concentrations. Antibody and antigen were diluted in 0.01 M HEPES pH 7.4, 0.15 M NaCl, 3 mM EDTA, 0.005% Surfactant P20 (HBS-EP). Kinetic and affinity constants were determined using the Biaevaluation software with a 1:1 interaction model/global fit.

Assay [9] has as its target T9, CD40 extracellular Domain 2 GST fusion protein (human, UniProt P25942 61-104).
T9 construct: Expressed in insect cells with a GP67 secretion signal; not shown: GST fusion partner
T9 chain: T1 chain
As to the kind of experiment: Western blot of GST domain fusions.

Assay [10] concerns the target T10, SPOTs peptide, spot 20 (HKYCDPNLGL) (human).
T10 peptide: HKYCDPNLGL
As to the kind of experiment: SPOTs peptide membrane, stripped and reprobed.
Description: as §2

The target of assay [11] is T11, SPOTs peptide, spot 21 (KYCDPNLGLR) (human).
T11 peptide: KYCDPNLGLR
Put plainly: SPOTs peptide membrane, stripped and reprobed.
Description: as §2

In assay [12] the target is T12, SPOTs peptide, spot 22 (YCDPNLGLRV) (human).
T12 peptide: YCDPNLGLRV
Put plainly: SPOTs peptide membrane, stripped and reprobed.
Description: as §2

Assay [13] addresses T13, CD40 extracellular Domain 1 GST fusion protein (human).
T13 construct: Expressed in insect cells with a GP67 secretion signal; not shown: GST fusion partner
T13 chain: T4 chain
As to the kind of experiment: SDS-PAGE and Western blot of insect cell supernatant with GST domain fusions. On the procedure: as §1

For assay [14], the target named is T14, CD40 extracellular Domain 3 GST fusion protein (human, UniProt P25942 104-144).
T14 construct: not shown: GST fusion partner
T14 chain: T2 chain
Described as above. On the procedure:
as §1

The target in assay [15] is T15, CD40 extracellular Domain 4 GST fusion protein (human, UniProt P25942 145-187).
T15 construct: not shown: GST fusion partner
T15 chain: T3 chain
The assay is described as above. Here is the method:
as §1

Assay [16] addresses T8, Recombinant soluble CD40-his. Put plainly: Biacore, antibody captured on protein A CM5 chip, CD40-his as analyte, 1:1 model/global fit. On the procedure:
as §3
(In general: Surface plasmon resonance follows binding to a sensor surface in real time, without labels.)

The target in assay [17] is human CD40 on normal human B cells (PBMC or purified B cells) (human, UniProt P25942 20-277). Put plainly: cell-based or functional assay.
Chain of human CD40 on normal human B cells (PBMC or purified B cells) (P25942 20-277): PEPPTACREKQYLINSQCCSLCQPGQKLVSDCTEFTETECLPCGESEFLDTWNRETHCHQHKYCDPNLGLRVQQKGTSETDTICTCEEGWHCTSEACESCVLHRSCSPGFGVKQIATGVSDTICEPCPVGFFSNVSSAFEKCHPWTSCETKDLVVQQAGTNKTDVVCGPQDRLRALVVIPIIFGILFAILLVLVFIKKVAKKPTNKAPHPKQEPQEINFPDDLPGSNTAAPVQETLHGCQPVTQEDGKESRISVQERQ
Assay [18] deals with T1, CD40 extracellular Domain 2 GST fusion …. As to the kind of experiment: western blot of CD40 domain GST fusion proteins (Domain 2). On the procedure: as §1
The target of assay [19] is T16, CD40 Domain 2 SPOTs peptide, spot 18 (HQHKYCDPNL) (human).
T16 construct: 10mer synthesized on a SPOTs membrane; also called Spot Number 18
T16 peptide: HQHKYCDPNL
Put plainly: SPOTs membrane of 10mer peptides of CD40 Domain 2; spot 18 listed among the results.
Description: as §2

Assay [20] deals with T17, CD40 Domain 2 SPOTs peptide, spot 19 (QHKYCDPNLG) (human).
T17 construct: 10mer synthesized on a SPOTs membrane; also called Spot Number 19
T17 peptide: QHKYCDPNLG
As to the kind of experiment: SPOTs membrane of 10mer peptides of CD40 Domain 2; spot 19 listed among the results.
Description: as §2

Assay [21] addresses T18, CD40 Domain 2 SPOTs peptide, spot 20 (HKYCDPNLGL) (human).
T18 construct: 10mer synthesized on a SPOTs membrane; also called Spot Number 20
T18 peptide: HKYCDPNLGL
Put plainly: SPOTs membrane of 10mer peptides of CD40 Domain 2; spot 20 listed among the results.
Description: as §2

In assay [22] the target is T19, CD40 Domain 2 SPOTs peptide, spot 21 (KYCDPNLGLR) (human).
T19 construct: 10mer synthesized on a SPOTs membrane; also called Spot Number 21
T19 peptide: KYCDPNLGLR
As to the kind of experiment: SPOTs membrane of 10mer peptides of CD40 Domain 2; spot 21 listed among the results.
Description: as §2

The target in assay [23] is T20, CD40 Domain 2 SPOTs peptide, spot 22 (YCDPNLGLRV) (human).
T20 construct: 10mer synthesized on a SPOTs membrane; also called Spot Number 22
T20 peptide: YCDPNLGLRV
Put plainly: SPOTs membrane of 10mer peptides of CD40 Domain 2; spot 22 listed among the results.
Description: as §2

Assay [24] has as its target human CD40 antigen expressed on the surface of cells (human, UniProt P25942 20-277). As to the kind of experiment: cell-based or functional assay.
The target of assay [25] is T21, SPOTs peptide, spot 18 (HQHKYCDPNL) (human).
T21 peptide: HQHKYCDPNL
As to the kind of experiment: SPOTs peptide membrane, antibody at 10 µg/ml.
Description: as §2

The target of assay [26] is T22, SPOTs peptide, spot 19 (QHKYCDPNLG) (human).
T22 peptide: QHKYCDPNLG
As to the kind of experiment: SPOTs peptide membrane, antibody at 10 µg/ml.
Description: as §2

Assay [27] addresses T10, SPOTs peptide, spot 20 (HKYCDPNLGL). Put plainly: SPOTs peptide membrane, antibody at 10 µg/ml.
Description: as §2

Assay [28] has as its target T11, SPOTs peptide, spot 21 (KYCDPNLGLR). Put plainly: SPOTs peptide membrane, antibody at 10 µg/ml.
Description: as §2

The target in assay [29] is T12, SPOTs peptide, spot 22 (YCDPNLGLRV). As to the kind of experiment: SPOTs peptide membrane, antibody at 10 µg/ml.
Description: as §2

Chain of human CD40 antigen expressed on the surface of cells (P25942 20-277): as above

B1: monoclonal antibody CHIR-5.9 (antibody, human IgG1, kappa)
heavy: not shown
light: AIVMTQPPLSSPVTLGQPASISCRSSQSLVHSDGNTYLNWLQQRPGQPPRLLIYKFFRRLSGVPDRFSGSGAGTDFTLKISRVEAEDVGVYYCMQVTQFPHTFGQGTRLEIKRTVAAPSVFIFPPSDEQLKSGTASVVCLLNNFYPREAKVQWKVDNALQSGNSQESVTEQDSKDSTYSLSSTLTLSKADYEKHKVYACEVTHQGLSSPVTKSFNRGEC
notes: Fully human IgG1 kappa anti-CD40 antibody; Leader residues (1-19 heavy, 1-20 light) left out as stated; also called mAb CHIR-5.9; CHIR-5.9/5.11
On to B1, for which the binding result in assay [1] is “binds”; in assay [2], “no binding”; in assay [3], “no binding”; in [4] it was “no binding”.

B2: monoclonal antibody CHIR-5.9 (antibody, human IgG1, kappa)
light: B1 light
heavy: not shown
notes: Fully human IgG1 kappa anti-CD40 antibody; also called mAb CHIR-5.9
Turning to B2, the binding result in assay [5], in [6] and in assay [7] was “binds” each time.

B3: monoclonal antibody CHIR-5.9 (antibody, human IgG1, kappa)
light: B1 light
heavy: not shown
notes: also called mAb 5.9
Consider B3, for which the Kd was 12 nM in [8] and 12.2 nM in assay [16]. Further, the binding result was “binds” in assay [9]; “binds” in assay [10]; “binds” in assay [11]; “binds” in assay [12]; “no binding” in [13]; “no binding” in [14]. Also, the binding result in assay [15] is given as “no binding”.

B4: monoclonal antibody CHIR-12.12 (antibody, human IgG1, kappa)
heavy: not shown
light: DIVMTQSPLSLTVTPGEPASISCRSSQSLLYSNGYNYLDWYLQKPGQSPQVLISLGSNRASGVPDRFSGSGSGTDFTLKISRVEAEDVGVYYCMQARQTPFTFGPGTKVDIRRTVAAPSVFIFPPSDEQLKSGTASVVCLLNNFYPREAKVQWKVDNALQSGNSQESVTEQDSKDSTYSLSSTLTLSKADYEKHKVYACEVTHQGLSSPVTKSFNRGEC
On to B4, for which, in assay [17], the “IC50(nM) for inhibition of CD40L-induced PBMC proliferation; PBMC-025 Donor#1” value came out at 24.2 nM, the “IC50(nM) for inhibition of CD40L-induced PBMC proliferation; PBMC-025 Donor#2” value is 66 nM, the “IC50(nM) for inhibition of CD40L-induced PBMC proliferation; PBMC-026 Donor#1” value was 45 nM and the “IC50(nM) for inhibition of CD40L-induced PBMC proliferation; PBMC-026 Donor#2” value is 84 nM. For the same molecule, in assay [17], the “IC50(nM) for inhibition of CD40L-induced PBMC proliferation; PBMC-028 Donor#1” value turned out to be 30.1 nM, the “IC50(nM) for inhibition of CD40L-induced PBMC proliferation; PBMC-028 Donor#2” value stood at 34.7 nM, the “IC50(nM) for inhibition of CD40L-induced PBMC proliferation; PBMC-029 Donor#1” value came out at 28.1 nM and the “IC50(nM) for inhibition of CD40L-induced PBMC proliferation; PBMC-029 Donor#2” value was determined as 55.4 nM. In addition, in assay [17], the “IC50(nM) for inhibition of CD40L-induced PBMC proliferation; PBMC-030 Donor#1” value was found to be 35.5 nM, the “IC50(nM) for inhibition of CD40L-induced PBMC proliferation; PBMC-030 Donor#2” value amounted to 103 nM, the “IC50(nM) for inhibition of CD40L-induced PBMC proliferation; PBMC-032 Donor#1” value was 40.4 nM and the “average IC50(nM) for inhibition of CD40L-induced PBMC proliferation” value came to 49.6 nM.

B5: monoclonal antibody CHIR-12.12 (antibody, human IgG1, kappa)
heavy: not shown
light: B4 light
notes: Fully human IgG1 kappa anti-CD40 antibody; Leader residues (1-19 heavy, 1-20 light) left out as stated
Consider B5, for which the binding result in assay [2] was “no binding”; in assay [3], “no binding”; in assay [4], “no binding”; in assay [18], “binds”; in assay [19], “binds”; in assay [20], “binds”. Further, the binding result in assay [21], in assay [22] and in [23] was “binds” throughout.

B6: monoclonal antibody CHIR-12.12 (antibody, human IgG1, kappa)
light: B4 light
heavy: not shown
On to B6, for which the Kd was found to be 0.5 nM in assay [8] and 0.51 nM in [16]. For the same molecule, the “IC50: antibody concentration to inhibit 50% of CD-40 ligand-induced lymphocyte proliferation, average of 6 donors” value in assay [24] was 0.047 nM. Besides, the binding result in [9], in assay [25], in assay [26], in assay [27], in [28] and in assay [29] was “binds” throughout. Moreover, the binding result in assay [13], in assay [14] and in [15] was “no binding” throughout.

In general, Kd refers to the concentration at which binding is half-saturated.
